Where a SMILES comes first, the peptide text is derived from it.
Tests used:
[1] = target: Sos1 WT peptide 1 PEP (Homo sapiens) (UniProt Q07889); conditions: cited from earlier work
Grb2-Sos1 association = Grb2-Sos1 association (Rattus norvegicus, UniProt P62994); assay: Blockade of Grb2-Sos1 association in PC12 cell lysates; assay type: biochemical, human; conditions: 1 μM peptide, PC12 cell lysate
Grb2 SH3 N-domain = assay: other fluorescence titration

Sequence of Grb2 N-terminal SH3 (P62993 1-58): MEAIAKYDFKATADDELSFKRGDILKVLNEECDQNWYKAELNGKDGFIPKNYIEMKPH
Sequence of Grb2-Sos1 association (P62994 whole entry): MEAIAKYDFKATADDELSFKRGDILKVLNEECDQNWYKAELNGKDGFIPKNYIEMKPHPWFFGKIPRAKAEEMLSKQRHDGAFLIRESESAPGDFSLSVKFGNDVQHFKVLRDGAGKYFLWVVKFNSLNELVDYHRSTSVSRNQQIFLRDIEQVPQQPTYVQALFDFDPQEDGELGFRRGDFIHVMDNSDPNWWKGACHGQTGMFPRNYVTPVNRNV

Grb2 N-terminal SH3 (from UniProt P62993)
Kd [1]: 39 µM

CC(=O)N1CCC[C@H]1C(=O)N[C@@H](CCCNC(=N)N)C(=O)N[C@H](C(=O)N1CCC[C@H]1C(=O)N1CCC[C@H]1C(=O)N1CCC[C@H]1C(=O)N1CCC[C@H]1C(=O)N[C@H](C(=O)N[C@@H](CCCNC(=N)N)C(=O)N[C@@H](CCCNC(=N)N)C(N)=O)C(C)C)C(C)C [Peptide 13, Ac-P-R-V-P-P-P-P-V-R-R-NH2] (Ac-PRVPPPPVRR-NH2)
inhibition of Grb2-Sos1 association (Grb2-Sos1 association): little inhibition

Ac-PRVPPPPVRR-NH2 [scrambled peptide Ac-P-R-V-P-P-P-P-V-R-R-NH2 (13)]
Kd (Grb2 SH3 N-domain): 173 µM
